This series in a line: Specific activity of purified TDO proteins, second hydroxylation of mesotrione. The settings on record: purified His6-tagged protein from E. coli, FIG. 8. In kind it is biochemical. The source says: Activity was expressed as nmol/min/mg protein and was the mean of three separate assays on the same enzyme sample (technical reps).
To test the hypothesis, the four amino acids of sorghum TDO corresponding to amino acid positions 230, 301, 332, and 335 in rice TDO were replaced with those of rice TDO. The corn, rice, sorghum, and the modified sorghum TDO genes were cloned into a pET28 vector for E. coli expression with His6 tag in the N-terminus. Subsequently, the proteins were expressed and purified by affinity chromatography. BL21-CodonPlus (DE3)-RIPL E. coli cells (Stratagene) were used for expression. Cells transformed with expression vector were grown in autoinduction media (AIM) supplemented with 100 μg mL-1 kanamycin and 34 μg mL-1 chloramphenicol.
TDO proteins used in this study were expressed in AIM cells using an auto-induction system as described by Studier (2014). Briefly, the recombinant cultures were grown at 37° C. for 3 hours and then 20° C. for one or two days. Cells were harvested by centrifugation and frozen at −80° C. The pellet was resuspended in lysis buffer (Bper and Yper [Pierce] with ratio 3 to 1, 25 mM Tris-HCl, 300 mM NaCl, 10 mM imidazole, pH 8.0). 150 mM ferric ammonium citrate (1000X) was added to the lysate to a final concentration of 150 µM and incubated on ice for 20 minutes. The lysate was centrifuged to clarify the supernatant. Clear supernatant was loaded onto a 5 mL Ni column connected to AKTA Express (GE Healthcare). […] Protein concentrations were determined spectrophotometrically based on their calculated molar absorption extinction coefficients at 280 nm.
TDO activity was measured by the second hydroxylation of mesotrione. For routine activity measurements of TDO and determining the kinetic properties of the second hydroxylation, the continuous change in A330, which is specific to the second hydroxylation and subsequent non-enzymatic water removal (i.e. the conversion of hydroxy-mesotrione to oxy-mesotrione), was monitored. […] The reaction proceeded until the maximum A330 was obtained (usually 20-120 minutes depending upon the concentration of mesotrione) and the linear portion of the curve was determined by visual inspection. […]
For the activity calculation, aliquots of the reaction were removed at various time points during the reaction and heated at 95° C. to halt the reaction. The reaction mixtures were analyzed by HPLC and mass spectrophotometry. By product conversation followed by peak integration on HPLC, a linear plot was obtained and the extinction co-efficient delta between the substrate (mesotrione) and the second product (oxy-mesotrione) was obtained according to the equation ΔA330=(εp-εs)*bΔp where ΔA330 is the change of absorbance at 330 nm and b is the light path.

This is an account of results in patent US20250134019A1, “TRIKETONE DIOXYGENASE VARIANTS FOR HERBICIDE TOLERANCE” (Monsanto Technology LLC, priority 2022, published 2025).

B1: Os.TDO: TDO from Oryza sativa (HIS1), SEQ ID NO:2, polynucleotide codon optimized for dicot expression (protein, listed as Oryza sativa)
chain: MADESWRAPAIVQELAAAGVEEPPSRYLLREKDRSDVKLVAAELPEPLPVVDLSRLDGAEEATKLRVALQNWGFFLLTNHGVEASLMDSVMNLSREFFNQPIERKQKFSNLIDGKNFQIQGYGTDRVVTQDQILDWSDRLHLRVEPKEEQDLAFWPDHPESFRDVLNKYASGTKRIRDDIIQAMAKLLELDEDYFLDRLNEAPAFARFNYYPPCPRPDLVFGIRPHSDGTLLTILLVDKDVSGLQVQRDGKWSNVEATPHTLLINLGDTMEVMCNGIFRSPVHRVVTNAEKERISLAMLYSVNDEKDIEPAAGLLDENRPARYRKVSVEEFRAGIFGKFSRGERYIDSLRI
For the molecule B1, the “specific activity of the second hydroxylation” value is listed as “highest activity”.
